The nanobody polyreactivity screen of Harvey et al. (2022)

Test: yeast display, Sf9 membrane polyspecificity reagent, FACS + sequencing; frameworks hold sequencing errors
How it was run: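 A synthetic nanobody library was expressed on Saccharomyces cerevisiae BJ5465 by galactose induction for 36–48 hours. The library was stained for 1 hour at 4 °C with 10% biotinylated, detergent-solubilized Sf9 membrane reagent and enriched with streptavidin microbeads before FACS. Low and high (top ~1%) gates were set on anti-HA fluorescence for expression and streptavidin fluorescence for reagent binding, and each polyreactivity label reflects the gate of origin.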

Row | Sequence | polyreactivity (PSR sort gate)
1 | QVQLVESGGGLVQAGGSLRLSCAASGRTCDRNTMGWYRQAPGKERELVAAISGSSARTYYADSVKGRFTISRDNAKNTVYLQMNSLKPEDTAVYYCNAEYGARAQHYEGDSWGQGTQVTVSS | high polyreactivity
2 | QVQLVESGGGLVQAGGSLRLSCAASGRTCWSYAMGWYRQAPGKEREVVATITGRGGSTYYADSVKGRFTISRDNAKNTVYLQRNSLKPEDTAVYYCAVRSKYRRTFGSWGQGTQVTVSS | high polyreactivity
3 | QVQLVESGGGLVQAGGSLRLSCAASGRTFAANTMGWYRQAPGKERELVAAISSSGGSTSYADSVKGRFTISRDNAKNTVYLQMNSLKPEDTAVYYCNTLLRRDFNYWGQGTQVTVSS | high polyreactivity
4 | QVQLVESGGGLVQAGGSLRLSCAASGRTFAAYAMGWYRPAPGKESELVAAISSSSGNTYYADSVKGRFTISRDNAKNTVYLQMNSLKPEDTAVYYCNAQRRFNANYWYDYWGQGTQVTVSS | high polyreactivity
5 | QVQLVESGGGLVQAGGSLRLSCAASGRTFAAYAMGWYRQAPGKEREFVADITYSGGSTTYADSVKGRFTISRDNAKNTVYLQMNSLKPEDTAVYYCNKLAYTRGWRGFVWYDYWGQGTQVTVSS | low polyreactivity
6 | QVQLVESGGGLVQAGGSLRLSCAASGRTFAAYAMGWYRQAPGKERELGAAISIGGSTNYADSVKGRFTISRDNAKNTVYLQMNSLKPEDSAVYYCAAPWYRGGTTESYYWGQGTQVTVSS | high polyreactivity
7 | QVQLVESGGGLVQAGGSLRLSCAASGRTFAAYAMGWYRQAPGKERELVAGITSSSVRTYYADSVKGRFTISRDNAKNTVYLQMNSLKPEDTAVYYCNARADGSSSRWRPYSKFYYWGQGTQVTVSS | low polyreactivity
8 | QVQLVESGGGLVQAGGSLRLSCAASGRTFADNAMGWYRQAPGKERELVASISSGTSTNYADSVKGRFTISRDNAKNTVYLQMNSLKPEDTAVYYCAADFSVYTEEDDSWGHGTQVTVSS | low polyreactivity
9 | QVQLVESGGGLVQAGGSLRLSCAASGRTFAGNAMGWYRQAPGKERELVAAISQGGGSTYYADSVKGRFTISRDNAKNTVYLQMNSLKPEDTAVYYCAAEIPRRWASFATLWYDYWGQGTQVTVSS | low polyreactivity
10 | QVQLVESGGGLVQAGGSLRLSCAASGRTFAGNAMGWYRQAPGKEREMVAAISVSGSTTYYADSVKGRFTISRDNAKNTVYLQMNSLKPEDTAVYYCAARGLTYRSDMYYWGQGTQVTVSS | low polyreactivity
11 | QVQLVESGGGLVQAGGSLRLSCAASGRTFAGYAMGWYRQAPGKERELVAAITNGGSTKYADSVKGRFTISRDNAKNTVYLQMNSLKPEDTAVYYCNARKRFYSGNTLMYYWGQGTQVTLSS | high polyreactivity
12 | QVQLVESGGGLVQAGGSLRLSCAASGRTFAINAMGWHRQAPGKERELVADITTDGSTYYADSVKGRFTISRDNAKNTVYLQMNSLKPEDTAVYYCATDSLDYFIRFKQFGYWGQGTQVTVSS | low polyreactivity
13 | QVQLVESGGGLVQAGGSLRLSCAASGRTFAKYAMGWYRQAPGKERELVAAITRGDTTNYADSVKGRFTISRDNAKNTVYLQMNSLKPEDTGVYYCAATPDPPHTYEYWGQGTQVTVSS | low polyreactivity
14 | QVQLVESGGGLVQAGGSLRLSCAASGRTFALYAMGWYRQAPGTERELVASISWRGGSTYYADSVKGRFTISRDNAKNTVYLQMNSLKPEDTAVYYCAADTWSYGPLNYRLEYWGQGTQVTVSS | low polyreactivity
15 | QVQLVESGGGLVQAGGSLRLSCAASGRTFANNAMGWYRQAPGKERELVAAITASGGRTYYADSVKGRFTISRDNAKNTVYLQLNSLKPEDTAVYYCAKRGYASGSKWDYGYWGQGTQVTVSS | high polyreactivity
16 | QVQLVESGGGLVQAGGSLRLSCAASGRTFANYAMGWYRQAPGKERELVAAISYSGGSTYYADSVKGRFTISRDNAKNTVYLQMNSLKPVDTAVYYCAKRWTGLGGYYYWGQGTQVTVSS | high polyreactivity
17 | QVQLVESGGGLVQAGGSLRLSCAASGRTFAPYAMGWYRQAPGKERELVAGITYRTGNTYYADSVKGRFTISRDNAKNTVYLQMNSLKPEDTAVYYCAAYSGYYRPRYNYWGQGTQVTVSS | high polyreactivity
18 | QVQLVESGGGLVQAGGSLRLSCAASGRTFAPYTMGWYRQAPGKERELVAVITRRDGRTYYADSVKGRFTISRDNAKNTVYLQMNSLKPEDTAVYYCCFFPADWYRPVRDLRTDSDYWGQGTQVTVSS | low polyreactivity
19 | QVQLVESGGGLVQAGGSLRLSCAASGRTFAPYVMGWYRQAPGKERELVAAITWSGGSTYYADSVKGRFTISRDNAKNTVYLQMNSLKPEDTALYYCAVKGAGGPKYDYWGQGTQVTVSS | high polyreactivity
20 | QVQLVESGGGLVQAGGSLRLSCAASGRTFAQYAMGWYRQAPGKERELVAAITKRGGTTYYADSVKGRFTISRDNAKNTVYLQMNSLKPEDTAVYYCKAGGVVPSTYYWGQGTQVTVSS | high polyreactivity
21 | QVQLVESGGGLVQAGGSLRLSCAASGRTFARNAMGWYRPAPGKERELVAAITGRGGSTHYADSVKGRFTISRDNAKNTVYLKMNSLKPEDTAVYYCAADYRYNRGSTSNKDYDYWGQGTQVTVSS | low polyreactivity
22 | QVQLVESGGGLVQAGGSLRLSCAASGRTFARNAMGWYRQAPGKERELGAAISSSGGSTYYADSVKGRFTISRDNAKNTVYLQMNSLKPEDTAVYYCDARSRHAYGYWGQGTQVTVSS | high polyreactivity

Row | Sequence | polyreactivity (PSR sort gate)
23 | QVQLVESGGGLVQAGGSLRLSCAASGRTFARNAMGWYRQAPGKERELVAAITSIGTRTYYADSVKARFTISRDNAMNTVYLQMNSLKREDTAVYYCNKKRTADYDYWGQGTQVTVSS | low polyreactivity
24 | QVQLVESGGGLVQAGGSLRLSCAASGRTFARYAMGWYRPAPGKERELVAAISSSGGSTYYADSVKWRFTISRDNAKNTVYLQMNSLKPEDTAVYYCVTYRNWWYDFWGQGTQVTGSS | high polyreactivity
25 | QVQLVESGGGLVQAGGSLRLSCAASGRTFARYVMGWYRQAPGKERELVAAINSGGTTYYADSVKGRFTISRDNAKNTVYLQMNSLKPEDTAVYYCNARRGHYAYDYWGQGTQVTLSS | high polyreactivity
26 | QVQLVESGGGLVQAGGSLRLSCAASGRTFASNAMGWYRQAPGKERELVAAITISGGRTYYADSVKGRFTISRDNAKNTVYLQMNSLKPEDTAVYYCAAAKHSWRPSYYWGGYWGQGTQVTVSS | low polyreactivity
27 | QVQLVESGGGLVQAGGSLRLSCAASGRTFASYARGWYRQAPGKERELVAVITRGVRTYYADSVKGRFTISRDNAKNTVYLQMNSLKPEDTAVYYCAKERYNANYDTSLYDYWGQGTQVTVSS | low polyreactivity
28 | QVQLVESGGGLVQAGGSLRLSCAASGRTFATNTMGWSRQAPGKERELVAAITFSGGSTYYADSVKGRFTISRDNAKNTVYLQMNSLKPEDTAVYYCNVRSPYYSYRYRYGYWGQGTQVTVSS | high polyreactivity
29 | QVQLVESGGGLVQAGGSLRLSCAASGRTFATNTMGWYRQAPGKERELVAAITFSGGSTYYADSVKGRFTISRDNAKNTVYLQMNSLKREDTAVYYCNVRSPYYSYRYRYGYWGHGTQVTVSS | high polyreactivity
30 | QVQLVESGGGLVQAGGSLRLSCAASGRTFATYAMGWYRQEPGKERELVAAISTSGGSTYYADSVKGRFTISRDNAKNTVYLQMNSLKPEDTAVYYCAAVLSWRGYTCPVYAFDYWGQGTQVTVSS | high polyreactivity
31 | QVQLVESGGGLVQAGGSLRLSCAASGRTFATYMGWYRQAPGKERELVAGITRGGNTNYADSVKGRFTISRDNAKNTVYLQMNSLKPEDTAVYYCAKLKYRSHYSWGQGTQVTVSS | high polyreactivity
32 | QVQLVESGGGLVQAGGSLRLSCAASGRTFAVYAMGWYRQAPGKERELVAAITFGGGRTYYADSVKGRFTISRDNAKITVYLQMNSLKPEDTAVYYCAADYYGTDYDYRGQGTQVTVSS | low polyreactivity
33 | QVQLVESGGGLVQAGGSLRLSCAASGRTFAWYAMAWYRQAPGKERELVATITSRGGSTYYADSVKGRFTISRDNAKNTVYLQMNSLKPEYTAVYYCAAQSFWRPHQYDYWGQGTQVTVSS | low polyreactivity
34 | QVQLVESGGGLVQAGGSLRLSCAASGRTFAWYAMGWYRQAPGKERELVAAISNVGSTYYADSVKGRFTISRDNAKNTVYLQMNSLKPEDTAVYYCNADAVSTDGREYWGQGTQVTVSS | low polyreactivity
35 | QVQLVESGGGLVQAGGSLRLSCAASGRTFAYNAMGWYRQAPGKERELVAAISRSGGSTYYADSVKGRFTISRDNAKNTVYLQMNSLKPEDTAVYYCNKVTHSYLYFAAGDYWGLGTQVTVSS | high polyreactivity
36 | QVQLVESGGGLVQAGGSLRLSCAASGRTFAYNAMGWYRQAPGTERELVAAITGSGGRTYYADSVKGRFTLSRDNAKYTVYLQMNSLIPEDTAVYYCAVGLPSRYDYWGQGTQVTVSS | low polyreactivity
37 | QVQLVESGGGLVQAGGSLRLSCAASGRTFAYNTMGWYRQAPGKERELVAAISTSGVRTFYADSVKGRFTISRDNAKNTVYLQMNSLKPEETAVYSYDWGQGTQVTVSS | low polyreactivity
38 | QVQLVESGGGLVQAGGSLRLSCAASGRTFAYYAMGWYRPAPGKERELVATITRSGGITSYADSVKGRFTISRDNAKNTVYLQMSSLKPADTAVYYCNTGYSNRLHDYWGQGTQVTVSS | high polyreactivity
39 | QVQLVESGGGLVQAGGSLRLSCAASGRTFAYYAMGWYRQAPGKERELVAAISTNGGTYYADSVKGRFTISRDNAKNTVYFQLNSLKPEDTAVYSCAAYTSYDVDYWGQGTQVTVSS | low polyreactivity
40 | QVQLVESGGGLVQAGGSLRLSCAASGRTFDDYAMGGYSQAPGKERELVAAISWSGSSTYYADSVKGRFTISRDNAKNTVYLQMNSLKPEDTAVYYCAADSIRTLLTGNTVYIWYGYWGQGNQVTVSS | low polyreactivity
41 | QVQLVESGGGLVQAGGSLRLSCAASGRTFDFYAMGWYRQAPGKERELDAAITFSTGSTTYADSVKGRFTISRDNAKNTVYLQMNSLKPEDTAVYYCNAYLYRKFGYRAYDYWGQGTQVTVSS | low polyreactivity
42 | QVQLVESGGGLVQAGGSLRLSCAASGRTFDGYAMGWYRQAPGKERELVAAISGSGGRTYYADSVKGRFTISRDNAKNTVYLQMNSLKPEVTAVYYCRGYYKYYPDEYDYWGQGTQVTVSS | high polyreactivity
43 | QVQLVESGGGLVQAGGSLRLSCAASGRTFDGYDMGSYRQAPGKERELVAAINVVGGSTYYADSVKGRFTISRDNAKNTVYLLMNSLKPEDTEVYYCAARRSYLTNFRRYYKMDYWGQGTQVTVAS | low polyreactivity
